One protein from ChEMBL document CHEMBL1132501, “Synthesis and anti-Helicobacter pylori activity of FR182024, a new cephem derivative” (1999) can be followed below.

A word on the Km: it is the concentration of substrate that gives half-maximal velocity.

Substrate in series [1]: O=C(Cc1cccs1)N[C@@H]1C(=O)N2C(C(=O)[O-])=C(C[n+]3ccccc3)CS[C@H]12
Description: The compound was tested against Bacteroides fragilis FP784 and its stability towards beta-lactamase was evaluated. The series is classed as functional.

Substrate in series [2]: O=C(Cc1cccs1)N[C@@H]1C(=O)N2C(C(=O)[O-])=C(C[n+]3ccccc3)CS[C@H]12
As to the kind of experiment: The compound was tested against Bacteroides fragilis FP784 and its stability towards beta-lactamase relative to cephaloridine was evaluated. The series is classed as functional.

B1: Beta-lactamase (Enterobacter cloacae), P05364 (protein)
chain: MMRKSLCCALLLGISCSALATPVSEKQLAEVVANTITPLMKAQSVPGMAVAVIYQGKPHYYTFGKADIAANKPVTPQTLFELGSISKTFTGVLGGDAIARGEISLDDAVTRYWPQLTGKQWQGIRMLDLATYTAGGLPLQVPDEVTDNASLLRFYQNWQPQWKPGTTRLYANASIGLFGALAVKPSGMPYEQAMTTRVLKPLKLDHTWINVPKAEEAHYAWGYRDGKAVRVSPGMLDAQAYGVKTNVQDMANWVMANMAPENVADASLKQGIALAQSRYWRIGSMYQGLGWEMLNWPVEANTVVEGSDSKVALAPLPVAEVNPPAPPVKASWVHKTGSTGGFGSYVAFIPEKQIGIVMLANTSYPNPARVEAAYHILEALQ
Consider B1, for which the Km in series [1] stood at 31.7 µg/mL. The Vmax in series [2] came to 1.
